Results from patent US20260042834A1 (HBM ALPHA THERAPEUTICS, published 2026).
Numbering of substitutions follows the chain as printed. “And” between values parts separate entries of the source, which are not always exact repeats. Equal values may be shown once.

T1: human UCN2 peptide (human, UniProt Q96RP3 72-109, limits assumed, not fully specified; biotin at N- or C-terminus in the ELISA)
T1 construct: also called hUCN2; hUCN2 (NT Biotin)
T1 peptide (looked up): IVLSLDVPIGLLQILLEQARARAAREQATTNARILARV

T2: human UCN3 peptide (human, UniProt Q969E3 120-157, not fully specified; biotin at N- or C-terminus in the ELISA)
T2 construct: also called hUCN3; hUCN3 (NT Biotin)
T2 peptide (looked up): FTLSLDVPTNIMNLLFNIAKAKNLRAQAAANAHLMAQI

T3: biotinylated CRH (human and mouse, not fully specified; biotinylated, position not stated)
T3 construct: also called Biotin-CRH; biotin-labeled CRH
T3 peptide: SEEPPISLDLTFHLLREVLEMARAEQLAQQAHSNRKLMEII

T4: CRH (CT-Biotin) (human and mouse (same sequence), biotin on an added C-terminal K (CRH-K-Biotin))
T4 construct: also called Peptide 4 (CRH-Biotin)
T4 peptide: T3 peptide

T5: CRH (NT-Biotin) (human and mouse (same sequence), not fully specified; biotin at the N-terminus)
T5 peptide: T3 peptide

T6: corticotropin-releasing hormone (CRH) peptide (human and mouse (same sequence), not fully specified)
T6 peptide: T3 peptide

T7: human UCN1 peptide (human, UniProt P55089 83-122)
T7 peptide (looked up): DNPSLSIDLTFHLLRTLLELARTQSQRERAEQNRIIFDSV

T8: corticotropin-releasing hormone (CRH) peptide (human and mouse, not fully specified)
T8 peptide: T3 peptide

T9: CRH (NT Biotin) (human and mouse, not fully specified; biotin at the N-terminus)
T9 peptide: T3 peptide

T10: CRH (CT Biotin) (human and mouse, C-terminal K-Biotin)
T10 construct: also called Peptide 4 (CRH-Biotin)
T10 peptide: T3 peptide

B1: PR302341-34 (antibody, human IgG1, kappa, V domains shown)
VH: QVQLVQSGAEVKKPGASVKVSCKASGYTFTDYFMKWVRQAPGQGLEWMGVINPNQGDIFYNQKFKGRVTMTVDKSISTAYMELSRLRSDDTAVYYCARGTDRALFAYWGQGTLVTVSS
VL: DVVMTQSPLSLPVTLGQPASISCRSGQSIVHSDANTYLEWYQQRPGQSPRLLIYKVSNRFSGVPDRFSGSGSGTDFTLKISRVEAEDLGVYYCFQGSHIPWTFGGGTKVEIKR
notes: Humanized, PTM-removed variant of PR302341
B2: PR302309-8 (antibody, human IgG1, kappa, V domains shown)
VH: QIQLVQSGSELKKPGASVKVSCKASGYTFTNYGMNWVRQAPGQGLEWMGWINTYTGEPIYTDDFKGRFVFSLDTSVSTAYLQISSLKAEDTAVYYCSRSTMITTGGVFAYWGQGTLVTVSS
VL: B1 VL with G26S, S28T, A34G, I99V
notes: Humanized variant of PR302309
B3: PR302341-60 (antibody, human IgG1, kappa, V domains shown)
VH: B1 VH with G44R, M70I, V72R, K74T, I76A, R85S, D89E
VL: B1 VL
notes: as for B1
B4: PR302341-48 (antibody, human IgG1, kappa, V domains shown)
VH: B1 VH with I76T, R85S, D89E
VL: B1 VL with S7T, L11S, S48P, S72A
notes: as for B1
B5: PR302341-28 (antibody, human IgG1, kappa, V domains shown)
VH: B1 VH
VL: B1 VL with A34G
notes: as for B1
B6: PR302309-11 (antibody, human IgG1, kappa, V domains shown)
VH: B2 VH
VL: DIVMTQTPLSSPVTLGQPASISCRSSQTIVHSDGNTYLEWLQQRPGQPPRLLIYKVSNRFSGVPDRFSGSGAGTDFTLKISRVEAEDVGVYYCFQGSHVPWTFGGGTKVEIKR
notes: Humanized variant of PR302309
B7: PR303394 (antibody, human IgG1, kappa, V domains shown)
VH: EVQLQQSGPELVKPGVSMKISCKASGYSFTDSTMNWVKQSHGKNLEWIGLIHPDNGGTIYNQKFKGKATLTVHKSSSTAYMELLSLTSEDSAVYYCANGFAYWGQGTLVTVSA
VL: DVVMTQTPLSLPVSLGDQASISCRSSQSLLHSNGNTYLHWYLQKPGQSPELLIYKVSNRFSGVPDRFSGSGSGTDFTLKISRVEAEDLGVYFCSQSTHVPLTFGAGTKLELKR
notes: also called analog of CTRND05
B8: PR302064 (antibody, human IgG1, kappa, V domains shown)
VH: EMQLVESGGGLVKPGGSLRLSCAASGFTFSNYWMNWVRQAPGKGLEWVAEIRLKSNNYATHYAESVKGRFTISRDDSKSTVYLQMNSLKTEDTAVYYCTVGTLVYWGQGTLVTVSS
VL: DIVLTQSPDSLAVSLGERATINCRASQSVSTSTYNYMHWFQQKPGQPPKLLIKFASNLESGVPDRFSGSGSGTDFTLTISSLQAEDTAVYYCQHSWEIPYTFGQGTKLEIKR
notes: Humanized variant of PR301777; human IgG1-WT-Fc
B9: PR004290 (antibody, human IgG1, kappa, V domains shown)
VH: EVQLVESGGVLVQPGGSLRLSCAASGFTFSSYWMTWVRQAPGKGLEWVANIKQDGSEKYYVDSVKGRFTISRDNAKNSLFLQMNSLRAEDTAVYYCARTLIFDYWGQGTLVTVSS
VL: DIVMTQSPLSLPVTPGEPASISCRSSQSLLHSTGYNSLEWYLQKPGQSPQLLIYLGSNRASGVPDRFSGSGSGTDFTLKISRVEAEDVGIYYCMQTLQTPITFGQGTRLEIKR
notes: Series 1; human IgG1 wildtype Fc; also called hybridoma clone 28b3
B10: PR005660 (antibody, human IgG1, kappa, V domains shown)
VH: B9 VH with D54E
VL: B9 VL with N36Q
notes: ΔPTM variant of PR004290
B11: PR302341 (antibody, human IgG1, kappa, V domains shown)
VH: EVQLQQSGPELVKPGASVKMSCKASGYTFTDYFMKWVKQSHGESLEWIGVINPNNGDIFYNQKFKGKATLTVDKSSSTAFMQLNSLTSEDSAVYSCARGTDRALFAYWGQGTLVAVSA
VL: DVLMTQTPLSLPVSLGDQASISCRSGQSIVHSDGNTYLEWYLQRPGQSPRLLIYKVSNRFSGVPDRFSGSGSGTDFTLKISRVGAEDLGIYYCFQGSHIPWTFGGGTKLEVKR
notes: Series 10; mouse variable domains with human IgG1 wildtype Fc
B12: PR006148 (antibody, human IgG1, kappa, V domains shown)
VH: B9 VH with G55A
VL: B9 VL with S37P
notes: PTM-removal variant of PR004290
B13: PR006150 (antibody, human IgG1, kappa, V domains shown)
VH: B9 VH with G55S
VL: B9 VL with N36D
notes: as for B12
B14: PR006149 (antibody, human IgG1, kappa, V domains shown)
VH: B9 VH with G55A
VL: B9 VL with N36S
notes: as for B12
B15: PR006152 (antibody, human IgG1, kappa, V domains shown)
VH: B9 VH with G55S
VL: B9 VL with S37P
notes: as for B12
B16: PR006151 (antibody, human IgG1, kappa, V domains shown)
VH: B9 VH with G55S
VL: B9 VL with N36H
notes: as for B12
B17: PR006153 (antibody, human IgG1, kappa, V domains shown)
VH: B9 VH with G55S
VL: B9 VL with N36S
notes: as for B12

Biological target: T1, human UCN2 peptide
Assay: ELISA, biotinylated hUCN2 on streptavidin plates
Experimental: (§1) Streptavidin (Thermo, Cat: 21125) was diluted in PBS with a concentration of 2 μg/mL. 100 μL of diluted streptavidin was added per well to ELISA microplates, and the plates were incubated overnight at 4° C. Plates were blocked with ELISA blocking solution (containing 2% w/v BSA, 0.05% (v/v) Tween-20, pH 7.4 PBS buffer) at 37° C. for 1 hour, and then incubated with either 1 μg/mL hUCN1 (NT Biotin), hUCN1 (CT Biotin), hUCN2 (NT Biotin), hUCN2 (CT Biotin), hUCN3 (NT Biotin), or hUCN3 (CT Biotin) for 1 hour at 37° C. […] 100 μl of TMB Substrate (Biopanda, Cat: TMB-S-003) was added, and the plates were incubated at room temperature for 15 minutes. 100 μL of ELISA stopping solution (Solarbio, Cat #: C1058) was then added to terminate the reaction, and the OD450 nm was determined by an ELISA plate reader (Molecular Devices, Spectra max 384 plus).

Row | binding result | Binder
1 | no binding (tested: 100 nM) | B1
2 | no binding (tested: 100 nM) | B2
3 | no binding (tested: 100 nM) | B3
4 | no binding (tested: 100 nM) | B4
5 | no binding (tested: 100 nM) | B5
6 | no binding (tested: 100 nM) | B6
7 | no binding (tested: 100 nM) | B7
8 | no binding (tested: 100 nM) | B8
9 | no binding (tested: 100 nM) | B9
10 | no binding (tested: 100 nM) | B10

Biological target: T2, human UCN3 peptide
Assay: ELISA, biotinylated hUCN3 on streptavidin plates
Experimental: as §1

Row | binding result | Binder
11 | no binding (tested: 100 nM) | B1
12 | no binding (tested: 100 nM) | B2
13 | no binding (tested: 100 nM) | B3
14 | no binding (tested: 100 nM) | B4
15 | no binding (tested: 100 nM) | B5
16 | no binding (tested: 100 nM) | B6
17 | no binding (tested: 100 nM) | B7
18 | no binding (tested: 100 nM) | B8
19 | no binding (tested: 100 nM) | B9
20 | no binding (tested: 100 nM) | B10

Biological target: T3, biotinylated CRH
Assay: Octet BLI, biotinylated CRH on SA sensor
Experimental: Octet® Red 96e was used for affinity measurement. Octet® running buffer was prepared by diluting kinetics buffer 10× (Fortebio, Cat #18-1105) in PBS according to the manufacturer's instructions. Two columns of SA sensors (Fortebio, Cat #18-5019) were hydrated in running buffer for 10 mins, one for ligand capturing and the other for reference. Antibodies were 2-fold diluted and added into a 96-well plate. […] After a 60-second baseline step, sensors were dipped into analyte and buffer wells successively, with the association and dissociation time of 180 seconds and 800 seconds, respectively. […] Signals of reference wells and reference sensors were subtracted by selecting “Double reference” before data fitting.

Row | Kd [nM] | koff [s⁻¹] | kon [M⁻¹ s⁻¹] | Binder
21 | < 0.001 | 2.18e-07 | 1.01e+06 | B11

Biological target: T4, CRH (CT-Biotin)
Assay: ELISA, biotinylated CRH on streptavidin plate
Experimental: (§2) Streptavidin (Thermo, Cat: 21125) was diluted in PBS to a concentration of 2 μg/ml. 100 μl of diluted streptavidin was added per well to ELISA microplates, and the plates were incubated overnight at 4° C. […] 100 μL of 3,3′,5,5′-tetramethylbenzidine (TMB) substrate (Biopanda, Cat: TMB-S-003) was added, and the plates were incubated at room temperature for 15 minutes. 100 μL of ELISA stopping solution (Solarbio, Cat #: C1058) was added to terminate the reaction, and the optical density at 450 nm (OD450 nm) was determined by an ELISA plate reader (Molecular Devices, Spectra max 384 plus).

Row | EC50 [nM] | Binder
22 | 0.03 | B12
23 | 0.016 | B13
24 | 0.027 | B14
25 | 0.023 | B15
26 | 0.023 | B16
27 | 0.019 | B17

Biological target: T5, CRH (NT-Biotin)
Assay: ELISA, biotinylated CRH on streptavidin plate
Experimental: as §2

Row | EC50 [nM] | Binder
28 | 0.035 | B12
29 | 0.013 | B13
30 | 0.019 | B14
31 | 0.028 | B15
32 | 0.03 | B16
33 | 0.019 | B17

Biological target: T6, corticotropin-releasing hormone (CRH) …
Assay: cell-based or functional assay

Row | hCRHR1 Luciferase Reporter Assay IC50 [nM] | mCrhr1 Luciferase Reporter Assay IC50 [nM] | Binder
34 | 2.5 | 4.87 | B12
35 | 5.88 | 18.3 | B13
36 | 8.04 | 40.1 | B14
37 | 2.19 | 4.4 | B15
38 | 13.6 | 57.6 | B16
39 | 12.4 | 39.5 | B17

Biological target: T7, human UCN1 peptide
Assay: cell-based or functional assay

Row | CHO-CRE-hCRHR1 1 nM hUCH1 IC50 [nM] | hUCN1 IC50/ CRH IC50 [fold] | Binder
40 | 19 | 40 | B11

Biological target: T8, corticotropin-releasing hormone (CRH) …
Assay: cell-based or functional assay

Row | CHO-CRE-hCRHR1 0.5 nM CRH IC50 | Binder
41 | 0.503 nM and 0.437 nM | B11

Biological target: T9, CRH (NT Biotin)
Assay: ELISA, biotin peptide on streptavidin plate
Experimental: as §2

Row | EC50 [nM] | Binder
42 | 0.023 | B11

Biological target: T10, CRH (CT Biotin)
Assay: ELISA, biotin peptide on streptavidin plate
Experimental: as §2

Row | EC50 [nM] | Binder
43 | 0.017 | B11
